The series in a line: soluble on expression in E. coli; label from the status in PepcDB or PDB records.
On to “MSLTKNNISFYVVDASEELTMNIKEASEKSGVSADTIRYYERIGLIPPIHRNESGVRKFGAEDLRWILFTRQMRRAGLSIEALIDYLALFREGEHTLEARAELLKKQRIELKNRIDVMQEALDRLDFKIDNYDTHLIPAQEELKDFNVERSNEGHHHHHH”, for which the “soluble on expression in E. coli” value is listed as “soluble”.

“MTMFGKIFSKKTPKTDIKSNGEALNASEIEQFIKDTLSHYISDNFPQGVLAVCQQLSITQKKKITIKLLMPFVCQGELDLLAQTLSENLARTVNFEIDLAIKPVRQFSLGNDKNKAGQEGMLQGKVANIIAIASGKGGVGKSTTTVNLAYALMCEGARVGILDADIYGPSIPSMLGLKNEKPSSSDGKLMTPVDAKGLSAMSIGFLVDEADATVWRGPMASSAFNQLLNETDWPELDYLLIDMPPGTGDIQLTLAQKVPVAAAVIVTTPQDIALIDAVKGIAMFDKVKVPVLGIVENMSYHLCENCGHKSHIFGEAGGEHMAEDHETKLLGQLPLDITIRQDADFGESDIIENSAGEIANHYRKIARNVSAQLFLQCDTASPLTATVAHKALEHHHHHH”: the “soluble on expression in E. coli” value is on record as “soluble”.

Consider “MSLYKILLADDERIILDGMAGIIEWESLGASLIGKAQNGHEAYEKIVHKQPHIVITDVKMPGMDGLELIKKVSAVSPSVQFIVLSGFGEFEYAKEAMKYGVKHYLLKPCNEQQIISSLEEIIAELKRQDVHKKKTAHLKHELDHIRSFAADQYLEGLIAGVAQLSPPPSLAGKKIRLLILKGEQSIDAAAREALGSALTAVCSSGEWTVLAVEENAAEKVAEVFADRKMAISQAGELRHAGQLFRDTAEASGDLHGSAVISKMIRLIADELGNPNLSLKWAAKDMLFMNPDYLGKLFKQETGEKFSQYVTRVRLEHAMKQMKIRRDVSVSEIAEEIGFGDNPKYFSLVFKKYTGLTPSEFRRKQGGASAGEGHHHHHH”, for which the “soluble on expression in E. coli” value is “soluble”.

Regarding “MGSDKIHHHHHHMADKGIIFSDAMVRALLDGTKTQTRRLCAWPNNPNTPQLTYIVACDEPGWFGDEEGEVQFRVPHAQGDRLYVREAWSVRGTYTDVVEVGYRASANRSHTEFVEQWPVGDAIPGKGSWPQWPKYGPSIHMPRWASRMWLQITDVRVQRLQEISAADCRAEGLERGAVGGLLPAYRGSADLEWRIYADDAYHDLWDSLHGESGTRWADNPWVTVYTFDVHKGNIGKAARG”, the “soluble on expression in E. coli” value is given as “not soluble”. As for “MSLKDITLQVALPKFGYKENVKSFVLEVIAKDSSFWNFFSGNEARKQIAVLVDNTAPKINIISNSYQIEQGGAGAVVFKADDANLDKVYIETNKGKIFKATPYVKEGYYAALIAWDARDEEFRAFVIATDKAGNISKERIRYYFVNRKYRVSNINLTDKFLDGKIENLANQYAPKDNNLNRYEKFKFVNETLRNSNEKLIHEITSKVPEEKIDNFDLNLFLPLKNGMKVADFADHRYYSYNGQFVSDSYHMGLDLASVAQAPIISNNAGKVVFAAENGIYGLNLIVYHGFGVYSLYGHCSSKNVDLDEMINKQSIIGKTGTSGLALGDHLHFGVLVQGVETRPEQWQDKKWIENNIYNVLNDGKKIILGKNEGHHHHHH”, the “soluble on expression in E. coli” value is listed as “not soluble”. Regarding “GPGSMSTFETVKEEKLEFEKNCDQHIYEKALLTFKGVDGMDVYNCSAPFKYEGRTHIFGRVEKRLEWANSYVRLFVETNKDEFTLVPGNMVWQLEDPFVSNIDNEMFLGGTHIRKTNNRVFTYYCDFFRGTAENLSYFTTGPDNMKDIRLVKLANNKIGVFSRPKTAAHAFIGFTVINNVMELTPTVIEEAPPLNVIHTGAWGGVNQAYLLSSDKLGCISHYSYIDKDEDGNEITVYTNYSFVLNPYLREVEDARIIGTKGCYPKCSPKVHKLLDCAFSSGIVMREDGRCDLYSGLGDAHEGRITIDYPFEGHGTLIDNLHF”, the “soluble on expression in E. coli” value was “soluble”. “MAQGNQQIDNQVLHHLRQKFPEVPEDVVCECVLQNKSDLAACCEYLTKVSPRFLYSEGSQSLTDLRNHMTQLNLGVSQNTHGAVQRDAVGMNGSRTLAPSVSDGPLNVPSALSEFYQPETPSVPTHTPASLSMESTRKPQPPQHLGLYQVGGKGHAPPQAPRFNPITVTLAPNTGRNTPTSLHIHGGPQSGLNSPNSIYIRPYVTQPGSTRQVQCRAQYSPTSQPAQQIYQITHPAAPQSSWSQHQTSHVYMPISSPTNTHTHTRFTCVCARVRMPVCLIHGNGR”: the “soluble on expression in E. coli” value is “not soluble”. For “MDVLSGTQVTDPEQLIVNREEVDDIELKMAELLSDLERKVLALYLDGRSYQEISEELNRHVKSIDNALQRVKRKLEKYLEYREISL”, the “soluble on expression in E. coli” value is on record as “not soluble”.

Source of the values: the DeepSol protein solubility set.
